Test results: PMC3894171, “Defining NELF-E RNA Binding in HIV-1 and Promoter-Proximal Pause Regions”

T1: dNELF-E(mut) (Drosophila, UniProt P92204 1-280, N173E;K174D;V175M;E177P;D178T;F179L)
T1 sequence: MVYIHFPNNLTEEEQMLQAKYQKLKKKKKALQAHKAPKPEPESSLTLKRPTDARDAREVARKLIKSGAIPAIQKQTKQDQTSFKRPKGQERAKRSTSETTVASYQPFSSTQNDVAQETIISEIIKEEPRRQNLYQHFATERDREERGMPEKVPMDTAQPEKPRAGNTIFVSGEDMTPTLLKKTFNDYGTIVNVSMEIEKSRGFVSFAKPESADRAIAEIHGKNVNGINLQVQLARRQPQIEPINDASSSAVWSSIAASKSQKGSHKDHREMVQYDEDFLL

B1: HIV-1 TAR (structured_RNA)
RNA: GGUCUCUCUGGUUAGACCAGAUCUGAGCCUGGGAGCUCUCUGGCUAACUAGGGAACC
B2: HIV-1 TAR+A (structured_RNA)
RNA: GGUCUCUCUGGUUAGACCAGAUCUGAGCCUGAGGAGCUCUCUGGCUAACUAGGGAACC

Key:
hNELF-E(mut) [1] = molecular target: T2, hNELF-E(mut) (human, UniProt P18615 1-380, E269N;D270K;M271V;P273E;T274D;L275F); assay: F-EMSA; 10 mM HEPES-NaOH pH 7.5, 100 mM NaCl, 25 mM KCl, 1 mM MgCl2, 0.02% Tween-20, 0.01% IGEPAL CA-630, 10 µg/ml yeast tRNA; 2 nM RNA, 0-2000 nM protein, 1-2 h, binding temperature not stated; gel 5% acrylamide 0.5X TBE at 4 °C; conditions: protein: recombinant; tags: N-terminal His6 (pHIS-parallel1); label: 3' fluorescein (5-thiosemicarbazide); hairpin with UCU bulge
T2 sequence (P18615 whole entry E269N/D270K/M271V/P273E/T274D/L275F): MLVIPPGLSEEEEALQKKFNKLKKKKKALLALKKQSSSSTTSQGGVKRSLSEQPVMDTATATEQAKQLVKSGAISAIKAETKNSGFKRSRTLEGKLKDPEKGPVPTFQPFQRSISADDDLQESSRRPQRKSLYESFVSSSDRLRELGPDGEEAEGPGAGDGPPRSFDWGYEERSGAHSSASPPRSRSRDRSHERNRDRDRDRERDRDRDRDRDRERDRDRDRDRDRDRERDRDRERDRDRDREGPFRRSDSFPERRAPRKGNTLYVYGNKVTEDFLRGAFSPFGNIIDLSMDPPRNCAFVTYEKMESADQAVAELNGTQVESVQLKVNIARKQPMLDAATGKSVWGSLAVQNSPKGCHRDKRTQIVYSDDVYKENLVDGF

dNELF-E(mut) [2] = molecular target: T1, dNELF-E(mut); assay: as above; conditions: protein: recombinant, tags: N-terminal His6 (pHIS-parallel1), label: 3' fluorescein (5-thiosemicarbazide)
hNELF-E(mut) [3] = molecular target: T2, hNELF-E(mut); assay: fluorescence polarization; 10 mM HEPES-NaOH pH 7.5, 100 mM NaCl, 25 mM KCl, 1 mM MgCl2, 0.02% Tween-20, 0.01% IGEPAL CA-630, 10 µg/ml yeast tRNA; 2 nM RNA, 0-2000 nM protein, 1-2 h, binding temperature not stated; gel 5% acrylamide 0.5X TBE at 4 °C; conditions: protein: recombinant; tags: N-terminal His6 (pHIS-parallel1); label: 3' fluorescein (5-thiosemicarbazide); hairpin with UCU bulge
dNELF-E(mut) [4] = molecular target: T1, dNELF-E(mut); assay: as above; conditions: protein: recombinant, tags: N-terminal His6 (pHIS-parallel1), label: 3' fluorescein (5-thiosemicarbazide)

| Binder | Kd (hNELF-E(mut) [1]) | Kd (dNELF-E(mut) [2]; hairpin with UCU bulge) | Kd (hNELF-E(mut) [3]) | Kd (dNELF-E(mut) [4]; hairpin with UCU bulge) | Kd (dNELF-E(mut) [2]; putative K-turn stem-loop) | Kd (dNELF-E(mut) [4]; putative K-turn stem-loop) |
| --- | --- | --- | --- | --- | --- | --- |
| B1 | 258 ± 17 nM | 270 ± 10 nM | 153 ± 7 nM | 130 ± 10 nM | – | – |
| GGCCCCACUGAGGAUGCCCACGGGCGAUUGGGGCCA (structured_RNA) [Napt1min] | – | – | – | – | 350 ± 50 nM | 95 ± 6 nM |
| B2 | 233 ± 40 nM | 280 ± 30 nM | 170 ± 5 nM | 120 ± 10 nM | – | – |
